Three substances from patent US20180282373 can be followed below.

The target of the data set is purified recombinant full-length WDR5 (UniProt P61964).

For the substance “GST-tagged MLL2 Win-SET domain, MLL2(5319-5537), Win motif arginine to alanine mutant”, the “core complex H3K4 dimethylation activity, mutant against wild type” value is “a 2-fold increase in this activity with the MLL2 Win motif variant”.
In the case of “GST-tagged MLL4 Win-SET domain, MLL4(2490-2715), Win motif arginine to alanine mutant”, the “core complex methyltransferase activity, H3K4me1 peptide, mutant against wild type” value is “showed similar amounts of activity compared to that of their wild-type counterparts”.
Regarding “GST-tagged SETd1A Win-SET domain, Setd1A(1474-1708), Win motif arginine to alanine mutant”, the “core complex methyltransferase activity, H3K4me1 and H3K4me2 peptides, mutant against wild type” value is recorded as “at least a 2-fold reduction in activity compared to their wild-type counterparts”.
